Experimental data published in US20210040204A1 (INSERM INSTITUT NATIONAL DE LA SANT ET DE LA RECHERCHE M …, published 2021).

T1: human Claudin-1 (human, UniProt O95832 1-211)
T1 construct: whole, on cells; also called CLDN1; human CLDN1
T1 sequence (looked up): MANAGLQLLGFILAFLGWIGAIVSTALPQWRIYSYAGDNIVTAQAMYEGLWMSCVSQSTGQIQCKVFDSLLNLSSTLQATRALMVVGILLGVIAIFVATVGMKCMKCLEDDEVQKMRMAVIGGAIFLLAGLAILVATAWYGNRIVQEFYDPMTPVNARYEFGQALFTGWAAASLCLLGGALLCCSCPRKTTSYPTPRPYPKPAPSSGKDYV

B1: rat anti-CLDN1 mAb OM-7D3-B3 (antibody, V domains shown)
VH: EVQLVESGGGLVQPGRSLKLSCLGSGFSFSSYGMNWIRQAPGKGLEWVASISPSGSYFYYADSVKGRFTISRENAKNTLYLQMTSLRAEDTALYYCARLPGFNPPFDHWGQGVVVTVSS
VL: NTVMTQSPTSMFMSVGDRVTMNCKASQNVGGNVDWYQWKPGQSPKLLMYGASNRYTGVPDRFRGSGSGTDFTLTISNMQTEDLAVYYCLQYKNNPWTFGGGTKVELK
notes: Hybridoma antibody, rat IgG2b with rat kappa light chain; also called rat OM-7D3-B3; parental rat antibody
B2: recombinant full-length IgG2b (parent isotype) antibody with the VH and VL of rat OM-7D3-B3 (antibody, V domains shown)
VH: EVQLVESGGGLVQPGRSLKLSCLGSGFSFSSYGMNWIRQAPGKGLEWVASISPSGSYFYYADSVKGRFTISRENAKNTLYLQMTSLRAEDTALYYCARLPGFNPPFDHWGQGVVVTVSS
VL: NTVMTQSPTSMFMSVGDRVTMNCKASQNVGGNVDWYQWKPGQSPKLLMYGASNRYTGVPDRFRGSGSGTDFTLTISNMQTEDLAVYYCLQYKNNPWTFGGGTKVELK
notes: IgG2b as the parent; also called recombinant full-length IgG2b antibody
B3: humanized anti-CLDN1 mAb H2L1 (antibody, V domains shown)
VH: QVQLVESGGGVVQPGRSLRLSCAASGFSFSSYGMNWVRQAPGKGLEWVTSISPSGSYFYYADSVKGRFTISRDNSKNTLYLQMNSLRAEDTAIYYCARLPGFNPPFDHWGQGTLVTVSS
VL: DIQMTQSPATLSVSPGERATLSCKASQNVGGNVDWYQWKPGQAPRLLIYGASNRYTGIPARFRGSGSGTEFTLTISSLQSEDFAVYYCLQYKNNPWTFGQGTKVEIK
notes: Full-length antibody made in CHO cells; variable domains fused to the constant domains of human IgG4 heavy and human kappa light chains
B4: humanized anti-CLDN1 mAb H2L2 (antibody, V domains shown)
VH: QVQLVESGGGVVQPGRSLRLSCAASGFSFSSYGMNWVRQAPGKGLEWVTSISPSGSYFYYADSVKGRFTISRDNSKNTLYLQMNSLRAEDTAIYYCARLPGFNPPFDHWGQGTLVTVSS
VL: DIQMTQSPSSLSASVGDRVTITCKASQNVGGNVDWYQWKPGKAPKLLIYGASNRYTGVPSRFRGSGSGTDFTLTISSLQPEDVATYYCLQYKNNPWTFGQGTKVEIK
notes: as for B3
B5: humanized anti-CLDN1 mAb H1L3 (antibody, V domains shown)
VH: EVQLVESGGGLVKPGGSLRLSCAASGFSFSSYGMNWVRQAPGKGLEWVSSISPSGSYFYYADSVKGRFTISRDNAKNSLYLQMNSLRAEDTAVYYCARLPGFNPPFDHWGQGTLVTVSS
VL: DIQMTQSPSSLSASVGDRVTITCKASQNVGGNVDWYQWKPGKAPKLLIYGASNRYTGVPDRFRGSGSGTDFTLTISSLQPEDVATYYCLQYKNNPWTFGGGTKVEIK
notes: as for B3
B6: humanized anti-CLDN1 mAb H3L1 (antibody, V domains shown)
VH: QVQLVESGGGVVQPGRSLRLSCLGSGFSFSSYGMNWVRQAPGKGLEWVASISPSGSYFYYADSVKGRFTISRDNSKNTLYLQMTSLRAEDTAIYYCARLPGFNPPFDHWGQGTLVTVSS
VL: DIQMTQSPATLSVSPGERATLSCKASQNVGGNVDWYQWKPGQAPRLLIYGASNRYTGIPARFRGSGSGTEFTLTISSLQSEDFAVYYCLQYKNNPWTFGQGTKVEIK
notes: as for B3
B7: humanized anti-CLDN1 mAb H2L3 (antibody, V domains shown)
VH: QVQLVESGGGVVQPGRSLRLSCAASGFSFSSYGMNWVRQAPGKGLEWVTSISPSGSYFYYADSVKGRFTISRDNSKNTLYLQMNSLRAEDTAIYYCARLPGFNPPFDHWGQGTLVTVSS
VL: DIQMTQSPSSLSASVGDRVTITCKASQNVGGNVDWYQWKPGKAPKLLIYGASNRYTGVPDRFRGSGSGTDFTLTISSLQPEDVATYYCLQYKNNPWTFGGGTKVEIK
notes: as for B3
B8: humanized anti-CLDN1 mAb H3L3 (antibody, V domains shown)
VH: QVQLVESGGGVVQPGRSLRLSCLGSGFSFSSYGMNWVRQAPGKGLEWVASISPSGSYFYYADSVKGRFTISRDNSKNTLYLQMTSLRAEDTAIYYCARLPGFNPPFDHWGQGTLVTVSS
VL: DIQMTQSPSSLSASVGDRVTITCKASQNVGGNVDWYQWKPGKAPKLLIYGASNRYTGVPDRFRGSGSGTDFTLTISSLQPEDVATYYCLQYKNNPWTFGGGTKVEIK
notes: Full-length antibody made in CHO cells; variable domains fused to the constant domains of human IgG4 heavy and human kappa light chains; also called humanized anti-CLDN1 antibody clone H3L3; humanized CLDN1 mAb (H3L3)
B9: humanized anti-CLDN1 mAb H3L2 (antibody, V domains shown)
VH: QVQLVESGGGVVQPGRSLRLSCLGSGFSFSSYGMNWVRQAPGKGLEWVASISPSGSYFYYADSVKGRFTISRDNSKNTLYLQMTSLRAEDTAIYYCARLPGFNPPFDHWGQGTLVTVSS
VL: DIQMTQSPSSLSASVGDRVTITCKASQNVGGNVDWYQWKPGKAPKLLIYGASNRYTGVPSRFRGSGSGTDFTLTISSLQPEDVATYYCLQYKNNPWTFGQGTKVEIK
notes: as for B3
B10: humanized anti-CLDN1 mAb H1L2 (antibody, V domains shown)
VH: EVQLVESGGGLVKPGGSLRLSCAASGFSFSSYGMNWVRQAPGKGLEWVSSISPSGSYFYYADSVKGRFTISRDNAKNSLYLQMNSLRAEDTAVYYCARLPGFNPPFDHWGQGTLVTVSS
VL: DIQMTQSPSSLSASVGDRVTITCKASQNVGGNVDWYQWKPGKAPKLLIYGASNRYTGVPSRFRGSGSGTDFTLTISSLQPEDVATYYCLQYKNNPWTFGQGTKVEIK
notes: as for B3
B11: humanized anti-CLDN1 mAb H1L1 (antibody, V domains shown)
VH: EVQLVESGGGLVKPGGSLRLSCAASGFSFSSYGMNWVRQAPGKGLEWVSSISPSGSYFYYADSVKGRFTISRDNAKNSLYLQMNSLRAEDTAVYYCARLPGFNPPFDHWGQGTLVTVSS
VL: DIQMTQSPATLSVSPGERATLSCKASQNVGGNVDWYQWKPGQAPRLLIYGASNRYTGIPARFRGSGSGTEFTLTISSLQSEDFAVYYCLQYKNNPWTFGQGTKVEIK
notes: as for B3

Tests used:
human Claudin-1 [1] = target: T1, human Claudin-1; test: flow cytometry on Huh7.5.1 and HepG2 cells with surface CLDN1 (FIG. 2A)
Method: (§1) FIG. 2. […] (A) Flow cytometry analysis of the binding of humanized OM-7D3-B3 anti-CLDN1 mAbs (20 μg/mL) to cell lines. […] Binding is expressed as delta median fluorescence intensity (ΔMFI). […] After 48 h, cells were stained with isotype control, rat OM-7D3-B3 or humanized H3L3 antibody (20 μg/mL). The ΔMFI from one experiment performed in duplicate are shown. […] Huh 7.5.1 cells were incubated with different mAbs (25 μg/mL) at 37° C. for 1 h prior to infection with HCVcc. Infectivity was assessed after 72 h by measuring luciferase activity and is expressed as log relative luciferase units (RLU). (D) Humanized anti-CLDN1 mAbs inhibit entry of HCVpp bearing envelope glycoproteins of strains H77 (genotype 1a) and HCV-J (genotype 1b). PHH were pre-treated with the humanized antibodies (20 μg/mL) for 1 h at 37° C. prior to infection with HCVpp. Infectivity was measured by luciferase activity after 72 h and is expressed as RLU. Graphs show results from one experiment performed in duplicate (A, B, D) or in triplicate (C).
(§2) Flow cytometry. […] Cells were washed and incubated with phycoerythrin (PE)-conjugated species-specific secondary antibodies at 4° C. for 45 min to allow detection of binding. Cells were subsequently washed and fixed with 2% paraformaldehyde (PFA) prior to analysis by flow cytometry using a BD LSRII flow cytometer. Net delta median fluorescence intensities (ΔMFI) were obtained after subtracting the background fluorescence with PBS. […] After 48 h, binding of antibodies was assessed as described above.

human Claudin-1 [2] = target: T1, human Claudin-1; test: not described (data not shown)
human Claudin-1 [3] = target: T1, human Claudin-1; test: flow cytometry, 20 µg/mL, 293T cells transfected with CLDN1-expressing pcDNA3.1 (FIG. 2B)
Method: as §1
as §2, with “Cells were subsequently washed and fixed with 2% paraformaldehyde (PFA) prior to analysis by flow cytometry using a BD LSRII flow cytometer.” left out

human Claudin-1 [4] = target: T1, human Claudin-1; test: flow cytometry, 20 µg/mL, Huh7.5.1 and HepG2 cells (FIG. 2A)
Method: as §1
as §2, with “Cells were subsequently washed and fixed with 2% paraformaldehyde (PFA) prior to analysis by flow cytometry using a BD LSRII flow cytometer.” left out

Row | Binder | binding result (human Claudin-1 [1]) | further results
1 | B1 | binds | –
2 | B2 | – | binding result (human Claudin-1 [2]): binds
3 | B3 | binds | –
4 | B4 | binds | –
5 | B5 | binds | –
6 | B6 | binds | –
7 | B7 | binds | –
8 | B8 | – | binding result (human Claudin-1 [3]): binds
9 | B9 | binds | –
10 | B10 | binds | –
11 | B11 | – | binding result (human Claudin-1 [4]): binds
